{"source": "paper PMC3355305", "about": "“Localized Dimerization and Nucleoid Binding Drive Gradient Formation by the Bacterial Cell Division Inhibitor MipZ” (Molecular Cell, 2012)", "molecules": {"B1": {"name": "MipZ: P loop ATPase and cell division inhibitor of Caulobacter crescentus; hexahistidine-tagged in vitro, YFP fusion in FRAP (protein)", "chain": "MAETRVIVVGNEKGGAGKSTIAVHLVTALLYGGAKVAVIDLDLRQRTSARFFENRRAWLDNKKIELPEPLALNLSDNDVALAERPEEEQVAGFEAAFARAMAECDFILIDTPGGDSAITRMAHGRADLVVTPMNDSFVDFDMLGTVDPVTLELTKPSLYSLTVWEGRKQRALSGQRQAMDWVVLRNRLATTEARNRKRLEDRLNALAKRVGFRIGPGLRDRVIYRELFPFGLTIADLSPQVRPVPVSLQHLAARQELRALMHSLGLSAYSGETMLAAQ", "modifications": "left off: His6, end not stated, state not stated", "notes": "hexahistidine-tagged in vitro, YFP fusion in FRAP"}}, "test_system": "MipZ or its mutant derivatives (immobilized, homotypic)", "experiment": "SPR analysis of MipZ self-association / dimer dissociation", "format": "binding, Caulobacter crescentus", "protocol": "Figure 2 Biochemical Analysis of MipZ Dimerization (A) ATPase cycle of MipZ. See the main text for details. (B and C) SPR analysis of MipZ self-association. […] After the binding phase, the chip was washed with buffer lacking protein and nucleotides to follow the dissociation reaction. The rate constants (koff) determined for the dissociation of the MipZ and MipZ-D42A complexes are 0.83 min^−1 and 0.067 min^−1, respectively. (D) Nucleotide-dependent dimerization of MipZ. MipZ-D42A was incubated with ADP (blue), ATP (orange) or ATPγS (red) and subjected to size exclusion chromatography. (E) ATPase activity of MipZ and its mutant derivatives. The graph gives the average turnover rate (kapp, average turnovers/min per molecule of MipZ) of the different MipZ derivatives (6 μM). Data represent the average of at least three independent experiments (±SD). Note that consistent with a critical role of the metal cofactor in dimerization and catalysis Mg^2+ was required for ATP turnover (Figure S2H). (F) Concentration dependence of the MipZ ATPase activity. The average turnover rate of MipZ (kapp) was determined at the indicated protein concentrations. […]"}
{"molecule": "B1", "values": [{"measurement": "dissociation rate constant (koff) of the dimeric complex", "setting": "in the presence of 1 mM ATPγS", "result": 0.003, "unit": "s⁻¹"}, {"measurement": "dissociation rate constant (koff) of the dimeric complex", "setting": "in the presence of ATP, chip washed with buffer lacking protein and nucleotides", "result": 0.0138, "unit": "s⁻¹"}]}
